Assay results as given in patent US20260109763A1, “ANTI-PILRA ANTIBODIES, USES THEREOF, AND RELATED METHODS AND REAGENTS” (DENALI THERAPEUTICS INC., priority 2021, published 2026).

Legend:
[1] = target: human PILRA R78 on cells (human) (UniProt Q9UKJ1); test: target engagement in brain lysate of human PILRA (R78) BACtg mice, 1 day after dosing; MSD assay, bound versus total PILRA
[2] = target: human PILRA R78 on cells (human) (UniProt Q9UKJ1); test: target engagement in brain lysate of human PILRA (R78) BACtg mice, 4 days after dosing; MSD assay, bound versus total PILRA

Chain of human PILRA R78 on cells (human) (Q9UKJ1 20-303 limits assumed): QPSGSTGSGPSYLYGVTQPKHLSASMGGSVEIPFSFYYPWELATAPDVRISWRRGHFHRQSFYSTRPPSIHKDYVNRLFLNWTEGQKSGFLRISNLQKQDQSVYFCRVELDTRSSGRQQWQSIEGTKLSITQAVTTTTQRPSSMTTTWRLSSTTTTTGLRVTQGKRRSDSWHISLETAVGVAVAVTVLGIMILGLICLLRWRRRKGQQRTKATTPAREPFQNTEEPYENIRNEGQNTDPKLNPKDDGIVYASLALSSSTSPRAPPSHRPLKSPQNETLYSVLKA

## isotype control antibody
[1]
  percent of brain human PILRA bound, 1 day: 17%
[2]
  percent of brain human PILRA bound, 4 days: 16%
